Positions count from the first letter of the chain named. One block for each binder: values may come before it. Where no end group is shown, it is not given here. [ ]: non-standard residue; d: D form. Arg(Me2a) = CN(C)C(=N)NCCC[C@H](N)C(=O)O; Arg(Me2s) = CN=C(NC)NCCC[C@H](N)C(=O)O; fluorescent label = not defined here
What was measured:
Experiment in all cases: fluorescence polarisation
[1] = molecular target: T1, histone H3 tail peptide (1–18) symmetrically dimethylated at Arg2 (H3R2me2s) (UniProt P68431 2-19)
T1 peptide (looked up): A[Arg(Me2s)]TKQTARKSTGGKAPRK

[2] = molecular target: T2, histone H3 tail peptide (1–18) asymmetrically dimethylated at Arg2 (H3R2me2a) (UniProt P68431 2-19)
T2 peptide (looked up): A[Arg(Me2a)]TKQTARKSTGGKAPRK

GST-PHD1 W335A of KDM5A = molecular target: T3, GST-PHD1 W335A of KDM5A (UniProt P29375 291-347, W335A)
T3 sequence (looked up): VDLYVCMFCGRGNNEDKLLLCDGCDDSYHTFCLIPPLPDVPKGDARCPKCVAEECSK

- fold reduction of binding affinity against unmodified H3 [1]: ~5 fold
- fold reduction of binding affinity against unmodified H3 [2]: ~5 fold
B1: GST-PHD1_(291–347) of KDM5A (domain or fragment, UniProt P29375 291-347, looked up)
chain: T3 sequence (looked up) with A45W

- Kd (GST-PHD1 W335A of KDM5A): > 100 µM
Binder: ARTKQTARKSTGGKAPRK-{fluorescent label} (peptide, UniProt P68431 2-19, looked up, reading uncertain) [histone H3 tail peptide H3_(1–18), unmethylated Lys4 (H3K4me0)]

— publication PMC5080983 (Nature communications, 2015)
